The assay concerns the target human NRP1 protein (human, UniProt O14786 22-856). Nature of the assay: ELISA.

Drawing on US20190227052A1 (published 2019), this text covers Kd for two molecules.

Sequence of human NRP1 protein (O14786 22-856): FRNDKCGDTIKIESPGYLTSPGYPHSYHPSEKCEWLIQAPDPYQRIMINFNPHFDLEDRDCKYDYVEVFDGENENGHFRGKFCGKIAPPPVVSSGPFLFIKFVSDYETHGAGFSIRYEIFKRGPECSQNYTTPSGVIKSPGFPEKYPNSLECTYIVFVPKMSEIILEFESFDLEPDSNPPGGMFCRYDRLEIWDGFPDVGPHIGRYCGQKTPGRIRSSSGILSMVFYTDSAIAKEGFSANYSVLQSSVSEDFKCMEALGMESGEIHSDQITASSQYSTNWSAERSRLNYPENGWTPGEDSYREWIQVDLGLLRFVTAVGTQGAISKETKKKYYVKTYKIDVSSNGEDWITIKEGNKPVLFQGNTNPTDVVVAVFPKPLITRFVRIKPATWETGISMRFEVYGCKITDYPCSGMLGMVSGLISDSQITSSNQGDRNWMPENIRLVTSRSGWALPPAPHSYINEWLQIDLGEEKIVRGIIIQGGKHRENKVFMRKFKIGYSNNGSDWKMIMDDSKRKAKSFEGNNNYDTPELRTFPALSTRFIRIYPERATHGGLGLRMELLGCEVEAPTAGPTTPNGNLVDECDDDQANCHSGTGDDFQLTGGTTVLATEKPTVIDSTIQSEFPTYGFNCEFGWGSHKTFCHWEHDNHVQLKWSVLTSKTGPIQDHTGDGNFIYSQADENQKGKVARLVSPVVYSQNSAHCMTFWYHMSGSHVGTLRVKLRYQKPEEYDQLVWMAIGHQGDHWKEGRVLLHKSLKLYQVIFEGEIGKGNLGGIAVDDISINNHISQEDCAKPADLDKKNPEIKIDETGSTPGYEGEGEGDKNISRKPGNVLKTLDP

B1: 1A03 anti-NRP1 IgG antibody (antibody, V domains shown)
VH: EVQLLESGGGLVQFGGSLRLSQAASGFTFSSYYMSWVRQAFGKGLEWVSAISFGSSNKYYADSVQGRFTISRDNSKNTLYLQMNELRAEDTAVYYCARRKKSFDYWGQGTLVTVSS
VL: QSVLTQFFSASGTPGQRVTISCSGFSSNIGNNDVSWYQQLFGTAPKLLIYSCNNRPSGVPDRFSGSKSGTSASLAISGLSSDEADYYCGAWVASLSAYVFGGGTKLTVTL
For B1, the affinity, expressed as Kd, was 1110 nM.

B2: IRCR-101 (3H10 converted into IgG format) (antibody, V domains shown)
VH: EVQLLESGGGLVQFQQSLRLSQAASQFTFSSYYMSWVRQAFGKGLEWVSAISPGSSNKYYADSVKGRFTISRDNSKNTLYLQMNELRAEDTAVYYCARRKYMFDYWGQGTLVTVSS
VL: GSVLTQPPSASGTPGQRVTISCTGESSNIGNNDVYWYQQLPGTAFKLLIYSQSNRSGMPDRFSGSKSGTSASLAISGLRSEDEADYYCASWDSSLSGYVFGGGTKLTVTL
In turn, B2 registered a Kd of 426 nM.
